Results published in the supplement of paper PMC10065799, “High-throughput profiling of sequence recognition by tyrosine kinases and SH2 domains using bacterial peptide display” (eLife, 2023).

Target: c-Src SH2
Test: SH2 binding enrichment of the phosphorylated peptide, bacterial display (enrichment ratio); higher = better substrate or ligand; peptides without Tyr show the background
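Note: peptide library displayed on the E. coli surface as eCPX fusions, selected cells deep-sequenced, score is each peptide's frequency after selection divided by its frequency in the input.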

Sequence	SH2 binding enrichment
PCNLIYFGEHP [TRPV6_Y201]	0.976
KYGTNYRVGSS [CPO_Y278]	0.835
RLQKLYLDRNL [IGFALS_Y248]	0.393
DRTVNYVLKCR [PLEKHG4_Y1068]	0.83
VDGSVYKLPPS [GCK_Y413_H416P]	0.426
ALVFLYFCIIF [SIGLEC12_Y494]	1.36
FSQNICIQNRN [PKP2_Y631_Y631C_YF]	0.665
DELDKYSEALK [TPM1_Y60]	0.655
FDDIAYIRKAL [PIK3CA_Y1021_T1025A]	0.39
VHVEVYDPPSP	0.708
QITQVYGFYDE [PPP2CA_Y127]	1.72
LKGQVYILGQE [ASS1_Y359_R363Q]	0.539
YHLGKYLQEVL [KLB_Y910_Y906H]	0.435
SRGLAYPARSA [LEMD2_Y122_P126S]	0.552
FLEKFYKFGCR [NNMT_Y25_S29C_YF]	0.781
NTVDFYDLFGG [PTPN11_Y63_G60V_YF]	0.665
GLSSAYGGLTS [KRT8_Y427]	0.42

Sequence	SH2 binding enrichment
FGSSSYRGAGG [RPA2_Y14_G15R_YF]	0.353
VYLGAYDHFLP [SLC22A5_Y486_R488H]	0.757
YVSLIYTNYEA [GSTP1_Y109_I105V]	3.42
GVMLLYFGRFN [ADGRD1_Y85_T82M_YF]	0.746
HNQDDYSYPSR [LDLR_Y845_G844D]	0.829
HNGDRYFKGIV [DCX_Y64_R59H]	0.413
EVASVYQSFQP [MAVS_Y92_YF]	0.507
RGRDSYGGPPR [RBMX_Y190]	0.519
ARGMEYLASKN [FGFR1_Y613_K618N]	0.524
RASSVYTRSTG [CCR5_Y339]	0.472
DSYSSYCNAVA [SLC20A2_Y436]	1.1
DFTEAYNPKIK [CLK1_Y305_YF]	0.533
RIVTTYIWERE [DNM2_Y463_R465W]	0.909
LDFNEYFRNLN [HPRT1_Y198_D201N_YF]	0.617
PYSNPYENSLI [EPOR_Y489]	5.44
KAWGIYDCQQP [CYP3A7_Y75_V71A]	0.602

Target: SHP2-C SH2
Test: as above

Sequence	SH2 binding enrichment
PCNLIYFGEHP [TRPV6_Y201]	1.15
KYGTNYRVGSS [CPO_Y278]	1.23
RLQKLYLDRNL [IGFALS_Y248]	0.634
DRTVNYVLKCR [PLEKHG4_Y1068]	0.61
VDGSVYKLPPS [GCK_Y413_H416P]	0.525
ALVFLYFCIIF [SIGLEC12_Y494]	1.48
FSQNICIQNRN [PKP2_Y631_Y631C_YF]	0.627
DELDKYSEALK [TPM1_Y60]	0.554
FDDIAYIRKAL [PIK3CA_Y1021_T1025A]	0.607
VHVEVYDPPSP	0.548
QITQVYGFYDE [PPP2CA_Y127]	0.693
LKGQVYILGQE [ASS1_Y359_R363Q]	0.761
YHLGKYLQEVL [KLB_Y910_Y906H]	0.565
SRGLAYPARSA [LEMD2_Y122_P126S]	0.596
FLEKFYKFGCR [NNMT_Y25_S29C_YF]	1.22
NTVDFYDLFGG [PTPN11_Y63_G60V_YF]	0.812
GLSSAYGGLTS [KRT8_Y427]	0.572

Sequence	SH2 binding enrichment
FGSSSYRGAGG [RPA2_Y14_G15R_YF]	0.548
VYLGAYDHFLP [SLC22A5_Y486_R488H]	4.29
YVSLIYTNYEA [GSTP1_Y109_I105V]	4.37
GVMLLYFGRFN [ADGRD1_Y85_T82M_YF]	1.25
HNQDDYSYPSR [LDLR_Y845_G844D]	0.616
HNGDRYFKGIV [DCX_Y64_R59H]	0.762
EVASVYQSFQP [MAVS_Y92_YF]	0.661
RGRDSYGGPPR [RBMX_Y190]	0.82
ARGMEYLASKN [FGFR1_Y613_K618N]	0.557
RASSVYTRSTG [CCR5_Y339]	0.489
DSYSSYCNAVA [SLC20A2_Y436]	0.688
DFTEAYNPKIK [CLK1_Y305_YF]	1.11
RIVTTYIWERE [DNM2_Y463_R465W]	0.846
LDFNEYFRNLN [HPRT1_Y198_D201N_YF]	0.37
PYSNPYENSLI [EPOR_Y489]	0.818
KAWGIYDCQQP [CYP3A7_Y75_V71A]	0.489
